The nature of the data set: yeast display, Sf9 membrane polyspecificity reagent, FACS + sequencing; frameworks hold sequencing errors. In short, it runs like this: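 Polyreactivity labels are assigned by the sorting gate from which each nanobody was recovered. The gates were low and high (top ~1%), set on anti-HA fluorescence for expression and streptavidin fluorescence for reagent binding. Before sorting, galactose-induced (36–48 hours) yeast display cells were stained for 1 hour at 4 °C with 10% biotinylated, detergent-solubilized Sf9 membrane reagent.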
As to “QVQLVESGGGLVQAGGSLRLSCAASGSTFDFNAMGWYRQAPGKERELVAAITSGGGSTYYADSLKGRFTISRDNAKNTVYLQMNSLKPEDTAVYYCAADDIVLRYDYWGQGTQVTVSS”, the “polyreactivity (PSR sort gate)” value was “low polyreactivity”.

For “QVQLVESGGGLVQAGGSLRLSCAASGSTFDFNAMGWYRQAPGKERELVAAITYSGGSTYYADSVKGRFTISRDNAKNTVYLQMNSLKPVDTAVYYCAAEDVYPGSIDMDYWGQGTQVTVSS”, the “polyreactivity (PSR sort gate)” value is recorded as “low polyreactivity”.

As to “QVQLVESGGGLVQAGGSLRLSCAASGSTFDFYAMGWYRQAPGKERELVAAITYSGGSTYYADSVKGRFTISRDNAKNTVYLQMNSLKPEDTAVYYCAAARVWQYSDFFLYYYWGQGTQVTVSS”, the “polyreactivity (PSR sort gate)” value is given as “low polyreactivity”.

As for “QVQLVESGGGLVQAGGSLRLSCAASGSTFDGNAMGWYRQAPGKERELVAAITRAGRTSYADSVKGRFTISRDNAKNTVYLQMNSLKPEDTAVYYCAKGGYDYWGQGTQVTVSS”, the “polyreactivity (PSR sort gate)” value was “low polyreactivity”.

For “QVQLVESGGGLVQAGGSLRLSCAASGSTFDGNAMGWYRQAPGKERELVAAITYTTSSTYYADSVKGRFTISRDNAKNTVYLQMNSLKPEDTAVYYCAAGVNYRSPGVSKGRDYWGQGTQVTVSS”, the “polyreactivity (PSR sort gate)” value was “low polyreactivity”.

Consider “QVQLVESGGGLVQAGGSLRLSCAASGSTFDGNAMGWYRQAPGKERELVATITRRGGSTNYADSVKGRFTISRDNAKNTVYLQMNSLKPEDTAVYYCATADAHSSAAGEDYWGQGTQVTVSS”, for which the “polyreactivity (PSR sort gate)” value is recorded as “low polyreactivity”.

For the sequence “QVQLVESGGGLVQAGGSLRLSCAASGSTFDGNAMGWYRQAPGKESELVAAISWSGGSTYYADSVKGRFTISRDNAKNSVYLQLNSLKPEDTAVYYCNAVHYPYQHMGSWGQGTQVSVSS”, the “polyreactivity (PSR sort gate)” value is recorded as “low polyreactivity”.

Regarding “QVQLVESGGGLVQAGGSLRLSCAASGSTFDGNAMGWYRQAPGTERELVATINSDDSKNYADSVKGRFTISRDNAKNTVYLQMNSLKPEDTAVYYCAARLYVTPILSYVERYTNDYWGQGTQVTVSS”, the “polyreactivity (PSR sort gate)” value is “low polyreactivity”.

With “QVQLVESGGGLVQAGGSLRLSCAASGSTFDGYALGWYRQAPGKERELVAAISKNGGRTYYADSVKGRFTISRDNAKNTVYLQMNSLKPEDTAVYYCAKDIIKYDYDYWGQGTQVTVSS”, the “polyreactivity (PSR sort gate)” value is given as “low polyreactivity”.

Turning to “QVQLVESGGGLVQAGGSLRLSCAASGSTFDGYTMGWYRQAPGKERELVAAISWRGTSTYYADSVKGRFTISRYIAKNTVYLQMNSLKPEDTAVYYCAADAYSGYDYWGQGTQVTVSS”, the “polyreactivity (PSR sort gate)” value was “low polyreactivity”.

Regarding “QVQLVESGGGLVQAGGSLRLSCAASGSTFDGYVMGWYRQAPGKEREFVAAISWSGGSTYYADSVKGRFTISRDNAKNTVYLQMNSLKPEDTAVYYCAARVRRQHGYWGQGTQVTVSS”, the “polyreactivity (PSR sort gate)” value is on record as “high polyreactivity”.

Turning to “QVQLVESGGGLVQAGGSLRLSCAASGSTFDINAMGWYRQAPGKEWELVAAITWSGDSTYYADSVKGRFTSSRDYAKHTVSLQMNSLKPEDTAVYYCAADYPYSYYEYSSYYYWGQGTQVTVSS”, the “polyreactivity (PSR sort gate)” value is “low polyreactivity”.

As for “QVQLVESGGGLVQAGGSLRLSCAASGSTFDIYPMGWYRQAPGKERELVAAISWSGGRTYYADSVKGRFTISRDNAKNTVYLQMNSLKPEDTAVYYCAAVNKSGTYVEYDYWGQGTQVTVSS”, the “polyreactivity (PSR sort gate)” value is “low polyreactivity”.

For the sequence “QVQLVESGGGLVQAGGSLRLSCAASGSTFDKNAMGWYRQEPGKERELVAAINNGGGTTYYADSVKGRFTISRDNAKNTVYLQMNSLKPEDTAVYYCAAVGKAYWSDYQYRYYYWGQGTQVTVSS”, the “polyreactivity (PSR sort gate)” value is recorded as “low polyreactivity”.

As to “QVQLVESGGGLVQAGGSLRLSCAASGSTFDKYAMGWYRQAPGKDRELVAAITWGGGSTYYADSVKGRFTISRDNAKNTVYLQMNSLKPEDTAVYYCAAEQGSSVLYDSWGQGTQVTVSS”, the “polyreactivity (PSR sort gate)” value is given as “low polyreactivity”.

Consider “QVQLVESGGGLVQAGGSLRLSCAASGSTFDNYVMGWYRQAPGKERELVAAISRRGGNTYYADSVKGRFTISRDNAKNTVYLQMNSLKPEDTAVYYCAADPYGYGHWGDYWGQGTQVTVSS”, for which the “polyreactivity (PSR sort gate)” value is listed as “low polyreactivity”.

“QVQLVESGGGLVQAGGSLRLSCAASGSTFDPNVMGWYRQAPGKERELVAGITWRGGRTYYADSVKGRFTISRDNAKNTVYLQMNSLKPEDTAVYYCNAEDWTRKYDYWGQGTQVTVSS”: the “polyreactivity (PSR sort gate)” value is “high polyreactivity”.

For “QVQLVESGGGLVQAGGSLRLSCAASGSTFDPYGMGWYRQAPGKERELVAAITSSGRTNYADSVKGRFTISRDNAKNTVYFQMNSLKPEDTAVYYCATRKERYFYRCYEYWGQGTQVTVSS”, the “polyreactivity (PSR sort gate)” value was “low polyreactivity”.

As for “QVQLVESGGGLVQAGGSLRLSCAASGSTFDQYGMGWYRQAPGKERELVAAITSVGGTNYADSVKGRFTISRDNAKNTVYLKMNSLKPEDTAVYYCAAGSVSQYDSWGQGTQVTVSS”, the “polyreactivity (PSR sort gate)” value is on record as “low polyreactivity”.

As to “QVQLVESGGGLVQAGGSLRLSCAASGSTFDRYTMGWYRQAPGKERELVAAISISGGSTYYADSVKGRFTISRDNAKNTVYLQMNSLKPEDTEVYYCAARLDTVTDYYYWGQGTQVTVSS”, the “polyreactivity (PSR sort gate)” value was “low polyreactivity”.

In the case of “QVQLVESGGGLVQAGGSLRLSCAASGSTFDSNAMGWYRQAPGKERELVAASDWSGGSTYYADSVKGRFTISRDNAKNTVYLQMNSLNPEDTGVYYGDADDSSINYGDFDYWGQGTQVTVTS”, the “polyreactivity (PSR sort gate)” value is given as “low polyreactivity”.

For the sequence “QVQLVESGGGLVQAGGSLRLSCAASGSTFDSNDMGWSRQAPGKERELVAAITWSGGSTYYADSVKGRFTISRDNAKNTVYLQMNSLKPEDTAVYYCAATSGRAFKYDYWGQGTQVTVSS”, the “polyreactivity (PSR sort gate)” value was “high polyreactivity”.

With “QVQLVESGGGLVQAGGSLRLSCAASGSTFDSNVIGWYRQAPGKERELVAAITWSGGSTYYADSVKGRFTISRDNAKNTVYLQMNSLKPEDTAVYYCAARHYPRYGNRRMYYWGQGTQVTVSS”, the “polyreactivity (PSR sort gate)” value is given as “high polyreactivity”.

As to “QVQLVESGGGLVQAGGSLRLSCAASGSTFDSNVMGCYRQAPGKERELVAVINGSGSNTYYADSVKGRFTISRDNAKNTVYLQMNSLKPEDTAVYYCAARVYVSRSKRLNYWGQGTQVTVSS”, the “polyreactivity (PSR sort gate)” value is given as “high polyreactivity”.

“QVQLVESGGGLVQAGGSLRLSCAASGSTFDSYAMGWSRQAPGKERELVAAISYSGGSTYYADSVKGRFTISRDNAKNTVYLQMNRLKPEDTAVYYCAASSYNHKRYPSPYDYWGQGTQVTVSS”: the “polyreactivity (PSR sort gate)” value is “high polyreactivity”.

As for “QVQLVESGGGLVQAGGSLRLSCAASGSTFDSYAMGWYRQAPGKERELVAAISYNGSSTYYADSVKGRFTISRDNAKNTVYLQMNSLKPEDTAVYYCAAAPGFSAGHHDYWGQGTQVTVSS”, the “polyreactivity (PSR sort gate)” value was “low polyreactivity”.

For “QVQLVESGGGLVQAGGSLRLSCAASGSTFDSYAMGWYRQAPGKERELVASITSNDGSTSYADSVKGRFTISRDNAKNTVYLQMNSLKPEDTAVYYCATTFQYYWFSLYDYWGQGTQVTVSS”, the “polyreactivity (PSR sort gate)” value was “low polyreactivity”.

“QVQLVESGGGLVQAGGSLRLSCAASGSTFDSYGMGWYRLAPGKERELVAPSTSRGASTNYADSVKGRFTISRDTAKNTVYLQMTSLKPEDTAVYYCNREVPWWLYKYDGHDYWGQATQVTVSS”: the “polyreactivity (PSR sort gate)” value is “low polyreactivity”.

On to “QVQLVESGGGLVQAGGSLRLSCAASGSTFDTNAMGWYRQAPGKERELVATITSIGGSTYADSVKGRFTISRDNAKNTVYLQMNSLKPEDTAVYYCATDYVEIDYDYDYWGQGTQVTVSS”, for which the “polyreactivity (PSR sort gate)” value was “low polyreactivity”.

For the sequence “QVQLVESGGGLVQAGGSLRLSCAASGSTFDVNAMGWYRPAPGKERELVAAISWNSGSTYYADSVKGRFTISRDNAKNTVYLQLNSLKPEDTAVYYCAATYGTGRRSKYGYWGQGTQVTVSS”, the “polyreactivity (PSR sort gate)” value is on record as “high polyreactivity”.

“QVQLVESGGGLVQAGGSLRLSCAASGSTFDYNAMGCYRQAPRKERELDAVIRSGGTTYYADSVKGRFTISRVNAKNTVYLQMNSLKPEDTAVYYCAASFQRRAGSYGGSRRYGYLGQGTQVTVSS”: the “polyreactivity (PSR sort gate)” value is “high polyreactivity”.

For the sequence “QVQLVESGGGLVQAGGSLRLSCAASGSTFDYNAMGWYRQAPGKERELVAAISRGGNTDYADSVKGRFTISRDNAKNSVYLQMNSLKPEDTAVYYCAADALLEWFDVAYFAYEYWGQGTQVTVSS”, the “polyreactivity (PSR sort gate)” value was “low polyreactivity”.

For the sequence “QVQLVESGGGLVQAGGSLRLSCAASGSTFDYNTMGWYRQAPGKERELVAAISWRGVSTYYADSVKGRFTISRDNAKNTVYLQMNSLKTEDTAVYYCNAVHHYPEHIGGGYWGQGTQVTVSS”, the “polyreactivity (PSR sort gate)” value is “low polyreactivity”.

On to “QVQLVESGGGLVQAGGSLRLSCAASGSTFDYNTMGWYRQAPGKERELVAGIRSSGARTYYADSVKGRFTISRDNAKNTVYLQMNSLKPEDTAVYYCAKTDGFYRGYGYWGQGTQVTVSS”, for which the “polyreactivity (PSR sort gate)” value is reported as “low polyreactivity”.

Regarding “QVQLVESGGGLVQAGGSLRLSCAASGSTFDYYAMGWYREAPGKERELVAGITSDGSTYYADSVKGRFTISRDNAKNTVYLQMNSLKPEDTAVYYCNKAPYHWPYEYWGQGTQVTVSS”, the “polyreactivity (PSR sort gate)” value is recorded as “low polyreactivity”.

“QVQLVESGGGLVQAGGSLRLSCAASGSTFDYYAMGWYRQAPGKERELVAAISSGGSTNYADSVKGRFTISRDNAKNTVYLQMNSLKPEDTAVYYCAAVALWDYKFFYYLLYDYWGQGTQVTVSS”: the “polyreactivity (PSR sort gate)” value is “low polyreactivity”.

“QVQLVESGGGLVQAGGSLRLSCAASGSTFDYYAMGWYRQAPGKERELVAAISSSGSSTYYADSVKGRFTISRDNAKNTVYLQMNSLKPEDTAVYYCNALSNVPYDYWGQGTQVTVSS”: the “polyreactivity (PSR sort gate)” value was “low polyreactivity”.

Turning to “QVQLVESGGGLVQAGGSLRLSCAASGSTFDYYAMGWYRQAPVKERELVAAITGTGGSTYYADSVKGRFTISRDNAKNTVYLQINRLKPEDTAVYYCAADTYLGWSYYWGQGTQVTVSS”, the “polyreactivity (PSR sort gate)” value is “high polyreactivity”.

With “QVQLVESGGGLVQAGGSLRLSCAASGSTFDYYTMGWYRQAPGKERELVAAISRSGGSTRYADSVKGRFTISRDNAKNTVYLQMNSLKPEYTAVYYCAAKLWRYYHYDYWGQGTQVTVSS”, the “polyreactivity (PSR sort gate)” value is “low polyreactivity”.

As to “QVQLVESGGGLVQAGGSLRLSCAASGSTFDYYVMGWYRQAPGKERELVAAISLSGGSTYYADSVKGRFTISRDNAKNTVYLQMNSLKPEHTAVYYCAAQTKPASRVTYYWYYYWGQGTQVTVSS”, the “polyreactivity (PSR sort gate)” value is given as “high polyreactivity”.

On to “QVQLVESGGGLVQAGGSLRLSCAASGSTFEAYAMGWYRQAPGKERELVAAITRGSTYYADSVKGRFTISRDNAKNTVYLQMNSLKPEDTAVYYCNVDYSYNSGYDYWGQGTQVTVSS”, for which the “polyreactivity (PSR sort gate)” value is listed as “high polyreactivity”.

Source of the values: the nanobody polyreactivity screen of Harvey et al. (2022).
